T1: recombinant soluble human FcγRIIB (UniProt P31994 43-217)
T1 chain: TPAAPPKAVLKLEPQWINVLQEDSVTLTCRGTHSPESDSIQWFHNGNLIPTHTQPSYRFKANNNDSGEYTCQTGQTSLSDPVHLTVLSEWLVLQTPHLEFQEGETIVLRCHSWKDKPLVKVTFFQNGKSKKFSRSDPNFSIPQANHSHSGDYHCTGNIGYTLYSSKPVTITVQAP


Target: T1, recombinant soluble human FcγRIIB
Experiment: SPR

koff [s⁻¹] | Binder
0.01 | chGB3_N297A (chimeric GB3, prior art antibody of WO 2005/051999, N297A format) (antibody, V domains shown) VH: VQLQQSGPELVKPGASVKISCKASGYTFTDYYIYWVKQWPGQGLEWIGWIFPGTGNTYYNENFKDKATLTIDRSSSTAYMLLGSLTSEDSAVYFCYGPFAYWGQ VL: RIQLTQSPSSLSASLGERVSLTCRASQEISGYLSWLQQKPDGTIKRLIYATSALDSGVPKRFSGSGSGSNYSLTISSLESEDFADYYCLQYANYPYTFGGGTKL
0.00049 | ch8A6_wt (antibody) chain 1: EVQLVESGGDLVQPGRSLRLSCAASGFTFSDYYMAWVRQAPKKGLEWVASISSDGSNTYYGDSVKGRFTISRDNTRSNLYLQMNSLRSEDTATYYCARPGDYWGQGVMVTVSS chain 2: NIVMTQSPTSMFISVGDRVTMNCKASQNVGTYVDWFQQKTGQSPTLLIFGASNRYTGVPDRFTGSGSGTDFTLSISNMQAEDLAVYYCLQYNYHPYTFGPGTTLELKR
